Laboratory results as given in PMC2878485 (Structure (London, England : 1993), 2008).
Residue numbers refer to the chain shown, from its start.

How the values were obtained:
[1] = target: T1, UL44ΔC290 (wild-type; N-terminal 290 residues of human cytomegalovirus UL44) (human cytomegalovirus, UniProt P16790 1-290); assay: ITC
T1 sequence (looked up): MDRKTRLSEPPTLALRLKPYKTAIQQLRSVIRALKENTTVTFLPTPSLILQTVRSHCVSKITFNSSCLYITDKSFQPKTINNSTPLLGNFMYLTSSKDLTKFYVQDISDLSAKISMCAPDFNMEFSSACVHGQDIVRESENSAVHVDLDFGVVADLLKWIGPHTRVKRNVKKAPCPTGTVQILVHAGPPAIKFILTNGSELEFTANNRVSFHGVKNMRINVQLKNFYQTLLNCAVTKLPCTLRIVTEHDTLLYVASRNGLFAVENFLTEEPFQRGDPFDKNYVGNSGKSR

[2] = target: T2, UL44ΔC290 K35A/K158A/K224A/K237A (human cytomegalovirus, UniProt P16790 1-290, K35A | K158A | K224A | K237A); assay: ITC
T2 sequence (looked up): T1 sequence (looked up) with K35A, K158A, K224A, K237A

[3] = target: T3, UL44ΔC290 R165A/K167A/R168A/K171A/K172A (human cytomegalovirus, UniProt P16790 1-290, R165A | K167A | R168A | K171A | K172A); assay: ITC
T3 sequence (looked up): T1 sequence (looked up) with R165A, K167A, R168A, K171A, K172A

[4] = target: UL44ΔC290 wild-type (Human cytomegalovirus, UniProt P16790 1-290); assay: disulfide crosslinking, nonreducing PAGE

LPRRLHLEPAFLPYSVKAHECC (peptide, UniProt P08546 1221-1242, looked up) [peptide corresponding to the C-terminal 22 residues of UL54]: binds [1]; binds [2]; binds [3].

B1: 18 bp thiol-tethered DNA (dsDNA)
DNA 1: TACCGCAGCCATCAGAGT
DNA 2: ACTCTGATGGCTGCGGTA
modifications: single thiol tether on backbone phosphate between bases 11 and 12 of strand 1
B1: binds [4].
